For the assay, the target named is T1, MtEccCb1-ATPase3 (ATPase3 domain of EccCb1 from Mycobacterium tuberculosis, residues 315-591) (Mycobacterium tuberculosis H37Rv, UniProt P9WNB1 315-591).
T1 sequence: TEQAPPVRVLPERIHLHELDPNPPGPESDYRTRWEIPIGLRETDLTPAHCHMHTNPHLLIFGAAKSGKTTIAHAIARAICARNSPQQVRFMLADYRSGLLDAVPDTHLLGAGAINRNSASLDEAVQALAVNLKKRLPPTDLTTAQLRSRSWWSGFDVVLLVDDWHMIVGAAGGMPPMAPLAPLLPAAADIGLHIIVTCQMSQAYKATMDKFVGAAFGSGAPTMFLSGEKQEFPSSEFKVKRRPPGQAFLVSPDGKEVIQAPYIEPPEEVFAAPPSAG
In words: ITC. Particulars: both partners purified.

B1: MtEsxB (culture filtrate protein CFP-10 of Mycobacterium tuberculosis) (natural protein)
chain: MAEMKTDAATLAQEAGNFERISGDLKTQIDQVESTAGSLQGQWRGAAGTAAQAAVVRFQEAANKQKQELDEISTNIRQAGVQYSRADEEQQQALSSQMGF
Turning to B1, the Kd was found to be 34 µM.

B2: wild-type peptide corresponding to the C-terminal 16-residues of MtEsxB (peptide)
peptide: RADEEQQQALSSQMGF
notes: source: synthetic peptide
Molecule B2 gave a Kd of 55 µM.

For the origin of these results see paper PMC6954902 (Protein & Cell, 2019).
